From patent US20210277137A1 (AbbVie / Abbott, published 2021)
Each block holds one binder with its values, some of them ahead of it.

How the values were obtained:
[1] = molecular target: T1, CD40-human Fc (huFc) fusion protein (Creative BioMart) (human, UniProt P25942 21-193); assay: ELISA: 1 µg/mL CD40-huFc with control huIgG1 on plate coated or not coated with HA-tagged CD40L, detection with HRP anti-human Fc
T1 construct: bought; also called CD40-huFc; not shown: human Fc
Source text: (§1) After development with TMB (3, 3′, 5, 5′-tetramethylbenzidine) substrate, the plates were read at OD₄₅₀.

[2] = molecular target: T2, human CD40 on cells (human, UniProt P25942 21-277); assay: cell-based or functional assay
[3] = molecular target: soluble form of the extracellular domain of human CD40 (Creative BioMart, cat #CD402221H) (human, UniProt P25942 21-193); assay: SPR (BIAcore T200); antibody captured by anti-Fc; soluble CD40 injected
Experimental: (§2) CD40 binding kinetics was analyzed by BIAcore assay with a BIAcore T200 instrument. Briefly, a goat anti-mouse Fc antibody (Pierce, cat #31170) or goat anti-human Fc (Pierce, cat #31125) was immobilized on a CM5 sensor chip, followed by capture of the anti-CD40 antibodies on the test surface.

[4] = molecular target: T3, soluble cynomolgus (cyno) CD40 (Creative BioMart, cat #CD40-8824C) (cynomolgus, UniProt G7PG38 21-193); assay: as above
T3 construct: extracellular domain; also called Cynomolgus CD40
Experimental: as §2

[5] = molecular target: T4, Alexa Fluor 488-conjugated soluble human CD40 protein (human, UniProt P25942 21-193, limits assumed, Alexa Fluor 488 conjugate (sites not given)); assay: flow cytometry: antibody titrated into 1 µg/mL Alexa Fluor 488-conjugated soluble human CD40 on CD40L+ Jurkat cells; half-maximal enhancement of the binding of CD40 to cell-surface CD40L
T4 construct: also called fluorochrome-conjugated human CD40

[6] = molecular target: T1, CD40-human Fc (huFc) fusion protein …; assay: ELISA: antibody titrated into 1 µg/mL CD40-huFc, mixture added to plate coated with HA-tagged CD40L, bound complex detected with HRP anti-human Fc; half-maximal enhancement of the signal of CD40-huFc on CD40L
Source text: as §1

[7] = molecular target: T5, human FcγRI (CD64) on CHO cells (human, UniProt P12314 16-374); assay: flow cytometry on CHO cells stably expressing human FcγRI (CD64), detection with fluorescence-conjugated anti-human F(ab')2 secondary antibody
T5 construct: whole, on cells
Experimental: (§3) Increasing amounts of anti-CD40 human IgG₁ antibodies and their Fc variants were incubated with CHO cells stably expressing different human Fcγ receptors, including FcγRI (CD64), FcγRIIA (CD32a), FcγRIIB (CD32b), and FcγRIIIA (CD16) with either F or V polymorphism. The binding was detected with a fluorescence-conjugated anti-human F(ab′)2 specific secondary antibody (Jackson ImmunoResearch).

[8] = molecular target: T6, human FcγRIIA (CD32a) on CHO cells (human, UniProt P12318 34-317); assay: flow cytometry on CHO cells stably expressing human FcγRIIA (CD32a), detection with fluorescence-conjugated anti-human F(ab')2 secondary antibody
T6 construct: whole, on cells
T6 sequence (looked up): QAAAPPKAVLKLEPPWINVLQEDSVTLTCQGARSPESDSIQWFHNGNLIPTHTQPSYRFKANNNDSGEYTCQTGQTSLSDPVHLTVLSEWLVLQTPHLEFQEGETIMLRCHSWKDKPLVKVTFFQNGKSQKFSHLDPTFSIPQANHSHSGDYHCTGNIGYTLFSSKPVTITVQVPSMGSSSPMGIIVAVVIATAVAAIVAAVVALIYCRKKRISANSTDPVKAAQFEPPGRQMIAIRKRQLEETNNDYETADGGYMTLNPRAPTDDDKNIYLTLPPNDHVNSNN
Experimental: as §3

[9] = molecular target: T7, human FcγRIIB (CD32b) on CHO cells (human, UniProt P31994 43-310); assay: flow cytometry on CHO cells stably expressing human FcγRIIB (CD32b), detection with fluorescence-conjugated anti-human F(ab')2 secondary antibody
T7 construct: whole, on cells
T7 sequence (looked up): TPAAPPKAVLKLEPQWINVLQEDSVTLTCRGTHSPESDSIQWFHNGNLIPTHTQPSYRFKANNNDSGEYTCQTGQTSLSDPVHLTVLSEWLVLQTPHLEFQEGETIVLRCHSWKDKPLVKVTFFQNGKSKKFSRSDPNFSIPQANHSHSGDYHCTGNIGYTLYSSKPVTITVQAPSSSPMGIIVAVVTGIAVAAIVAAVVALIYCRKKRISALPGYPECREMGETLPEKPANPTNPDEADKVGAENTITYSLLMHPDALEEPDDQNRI
Experimental: as §3

[10] = molecular target: T8, human FcγRIIIA (CD16) with V polymorphism on CHO cells (human, UniProt P08637 17-254); assay: flow cytometry on CHO cells stably expressing human FcγRIIIA (CD16V), detection with fluorescence-conjugated anti-human F(ab')2 secondary antibody
T8 construct: whole, on cells; V allotype; also called CD16V
Experimental: as §3

[11] = molecular target: T2, human CD40 on cells; assay: cell-based or functional assay; remark: listed apart in the source
[12] = molecular target: T9, human FcγRIIIA (CD16) with F polymorphism on CHO cells (human, UniProt P08637 17-254); assay: flow cytometry on CHO cells stably expressing human FcγRIIIA (CD16F), detection with fluorescence-conjugated anti-human F(ab')2 secondary antibody
T9 construct: whole, on cells; also called CD16F
Experimental: as §3

[13] = molecular target: T1, CD40-human Fc (huFc) fusion protein …; assay: competition ELISA: antibody titrated into 1 µg/mL CD40-huFc, mixture added to plate coated with HA-tagged CD40L, bound CD40-huFc detected with HRP anti-human Fc; blocked ligand: CD40L
Source text: as §1

T5 sequence (P12314 16-374): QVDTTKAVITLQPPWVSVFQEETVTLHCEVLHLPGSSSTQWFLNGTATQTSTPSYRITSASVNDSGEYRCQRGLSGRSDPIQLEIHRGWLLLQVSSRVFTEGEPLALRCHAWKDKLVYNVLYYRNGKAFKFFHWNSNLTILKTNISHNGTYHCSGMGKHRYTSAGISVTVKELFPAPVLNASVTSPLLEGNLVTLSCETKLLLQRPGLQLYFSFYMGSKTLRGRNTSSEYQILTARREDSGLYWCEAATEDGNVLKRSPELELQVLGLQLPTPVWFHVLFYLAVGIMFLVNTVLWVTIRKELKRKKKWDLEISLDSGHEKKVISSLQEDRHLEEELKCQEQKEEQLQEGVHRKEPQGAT
T2 sequence (P25942 21-277 limits assumed): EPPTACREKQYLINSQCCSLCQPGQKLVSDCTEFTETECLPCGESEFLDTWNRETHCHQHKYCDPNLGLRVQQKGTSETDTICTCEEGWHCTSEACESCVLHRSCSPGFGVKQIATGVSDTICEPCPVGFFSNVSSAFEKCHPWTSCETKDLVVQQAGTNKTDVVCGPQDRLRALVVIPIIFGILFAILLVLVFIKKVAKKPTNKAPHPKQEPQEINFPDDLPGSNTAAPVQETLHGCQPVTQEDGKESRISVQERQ
T1 sequence (P25942 21-193 limits assumed): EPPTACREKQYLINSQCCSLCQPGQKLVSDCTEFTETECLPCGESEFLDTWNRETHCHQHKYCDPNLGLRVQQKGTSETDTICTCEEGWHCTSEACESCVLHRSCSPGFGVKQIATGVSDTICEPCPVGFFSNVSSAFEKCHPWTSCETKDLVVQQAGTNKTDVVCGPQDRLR
soluble form of the extracellular domain of human CD40 (Creative BioMart, cat #CD402221H), sequence (P25942 21-193 limits assumed): as above
T8 sequence (P08637 17-254 F176V): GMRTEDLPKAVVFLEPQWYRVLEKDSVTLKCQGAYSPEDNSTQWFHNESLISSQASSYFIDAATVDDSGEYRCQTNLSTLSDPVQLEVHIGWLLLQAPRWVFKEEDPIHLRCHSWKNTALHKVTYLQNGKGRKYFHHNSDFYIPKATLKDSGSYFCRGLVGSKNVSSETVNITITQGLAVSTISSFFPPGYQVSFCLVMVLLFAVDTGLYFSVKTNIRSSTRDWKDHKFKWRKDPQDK
T9 sequence (P08637 17-254): as the sequence (P08637 17-254 F176V) above, with V160F counted along it
T4 sequence (P25942 21-193 limits assumed): as the sequence (P25942 21-193 limits assumed) above

- binding result [1]: binds
B1: HA-tagged CD40L (R&D Systems) (ligand)
chain: ENSFEMQKGDQNPQIAAHVISEASSKTTSVLQWAEKGYYTMSNNLVTLENGKQLTVKRQGLYYIYAQVTFCSNREASSQAPFIASLCLKSPGRFERILLRAANTHSSAKPCGQQSIHLGGVFELQPGASVFVNVTDPSQVSHGTGFTSFGLLKL
notes: bought; not shown: HA tag

- EC50 (read off the curve) [7]: ~0.4 µg/mL
- binding result [8]: binds
- binding result [9]: binds
B5: huAb9-5 human IgG1 V273Y variant (antibody)
heavy: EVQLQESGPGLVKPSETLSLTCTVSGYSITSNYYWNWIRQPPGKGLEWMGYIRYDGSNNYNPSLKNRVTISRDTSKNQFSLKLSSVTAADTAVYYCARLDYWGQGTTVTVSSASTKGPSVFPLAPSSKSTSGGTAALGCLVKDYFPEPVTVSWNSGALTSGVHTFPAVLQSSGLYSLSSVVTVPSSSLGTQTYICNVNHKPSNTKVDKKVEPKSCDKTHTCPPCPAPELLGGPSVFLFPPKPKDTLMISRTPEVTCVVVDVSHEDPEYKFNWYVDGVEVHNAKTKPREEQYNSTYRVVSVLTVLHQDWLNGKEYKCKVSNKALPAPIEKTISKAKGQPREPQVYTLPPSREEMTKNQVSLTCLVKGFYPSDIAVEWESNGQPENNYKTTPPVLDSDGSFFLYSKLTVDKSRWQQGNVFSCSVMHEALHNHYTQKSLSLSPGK
light: DAVMTQTPLSLSVTPGQPASISCRSSQSLENTNGNTFLNWYLQKPGQSPQLLIYRVSNRFSGVPDRFSGSGSGTDFTLKISRVEAEDVGVYYCLQVTHVPFTFGQGTKLEIKRTVAAPSVFIFPPSDEQLKSGTASVVCLLNNFYPREAKVQWKVDNALQSGNSQESVTEQDSKDSTYSLSSTLTLSKADYEKHKVYACEVTHQGLSSPVTKSFNRGEC
notes: also called huAb9-5 V273Y

- Maximal activation (OD655) in HEK293 blue CD40 NFκB reporter cells [11]: 0.46 OD655
- NFκB activation EC50 (SEAP, OD655) in HEK293 blue CD40 NFκB reporter cells [11]: 0.07 µg/mL
- IC50 (read off the curve) [13]: ~0.3 µg/mL
B7: Humanized muAb8 #3 (antibody, V domains shown)
VH: EVQLVQSGAEVKKPGSSVKVSCKASGYTFTDYYINWVRQAPGQGLEWIGWIFPGSGSVYCNEQFKGRVTITVDKSTSTAYMELSSLRSEDTAVYYCASSLGKFAYWGQGTLVTVSS
VL: DIQMTQSPSSLSASVGDRVTITCKASQSVVTAVAWYQQKPGKSPKLLIYSASNRYTGVPSRFSGSGSGTDFTLTISSLQPEDFATYFCQQYSSYPYTFGGGTKVEIK
notes: human IgG1 constant region (natural variants D356E and L358M) and kappa light chain; also called huAb8-3

Further lines, the binder ahead of its results:

B2: Humanized muAb9 A2I (antibody, human IgG1, kappa)
heavy: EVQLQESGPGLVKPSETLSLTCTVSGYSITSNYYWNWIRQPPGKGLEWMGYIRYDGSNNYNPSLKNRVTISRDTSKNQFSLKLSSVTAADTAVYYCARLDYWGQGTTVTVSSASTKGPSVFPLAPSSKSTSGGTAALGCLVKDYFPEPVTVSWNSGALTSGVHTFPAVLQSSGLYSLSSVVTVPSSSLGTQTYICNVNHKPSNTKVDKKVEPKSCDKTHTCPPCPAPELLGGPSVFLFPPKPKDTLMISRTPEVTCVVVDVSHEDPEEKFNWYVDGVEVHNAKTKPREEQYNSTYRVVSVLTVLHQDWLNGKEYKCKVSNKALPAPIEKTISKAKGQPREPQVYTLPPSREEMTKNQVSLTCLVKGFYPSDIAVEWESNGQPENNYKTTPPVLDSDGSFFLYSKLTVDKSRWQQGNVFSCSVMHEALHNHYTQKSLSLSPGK
light: DIVMTQTPLSLSVTPGQPASISCRSSQSLENTNGNTFLNWYLQKPGQSPQLLIYRVSNRFSGVPDRFSGSGSGTDFTLKISRVEAEDVGVYYCLQVTHVPFTFGQGTKLEIKRTVAAPSVFIFPPSDEQLKSGTASVVCLLNNFYPREAKVQWKVDNALQSGNSQESVTEQDSKDSTYSLSSTLTLSKADYEKHKVYACEVTHQGLSSPVTKSFNRGEC
notes: human IgG1 V273E/kappa; also called huAb9 A2I; huAb9 A2I (huIgG1 V273E)
- NFκB activity EC50; HEK293 blue CD40 reporter cells co-cultured with CHO cells expressing CD16F [2]: 0.39 nM
- NFκB activity EC50; HEK293 blue CD40 reporter cells co-cultured with CHO cells expressing CD16V [2]: 0.3 nM
- NFκB activity EC50; HEK293 blue CD40 reporter cells co-cultured with CHO cells expressing CD32a [2]: 0.08 nM
- NFκB activity EC50; HEK293 blue CD40 reporter cells co-cultured with CHO cells expressing CD32b [2]: 0.07 nM
- NFκB activity EC50; HEK293 blue CD40 reporter cells co-cultured with CHO cells expressing CD64 [2]: 0.01 nM
- NFκB activity EC50; HEK293 blue CD40 reporter cells co-cultured with FcγR negative CHO cells [2]: 0.72 nM
- Kd [3]: 170 nM
- koff [3]: 0.22 s⁻¹
- kon [3]: 1.3e+06 M⁻¹ s⁻¹
- Kd [4]: 150 nM
- koff [4]: 0.25 s⁻¹
- EC50 (read off the curve) [5]: ~4 µg/mL
- EC50 (read off the curve) [6]: ~1 µg/mL

B3: huAb9-5 human IgG1 V273E variant (antibody)
heavy: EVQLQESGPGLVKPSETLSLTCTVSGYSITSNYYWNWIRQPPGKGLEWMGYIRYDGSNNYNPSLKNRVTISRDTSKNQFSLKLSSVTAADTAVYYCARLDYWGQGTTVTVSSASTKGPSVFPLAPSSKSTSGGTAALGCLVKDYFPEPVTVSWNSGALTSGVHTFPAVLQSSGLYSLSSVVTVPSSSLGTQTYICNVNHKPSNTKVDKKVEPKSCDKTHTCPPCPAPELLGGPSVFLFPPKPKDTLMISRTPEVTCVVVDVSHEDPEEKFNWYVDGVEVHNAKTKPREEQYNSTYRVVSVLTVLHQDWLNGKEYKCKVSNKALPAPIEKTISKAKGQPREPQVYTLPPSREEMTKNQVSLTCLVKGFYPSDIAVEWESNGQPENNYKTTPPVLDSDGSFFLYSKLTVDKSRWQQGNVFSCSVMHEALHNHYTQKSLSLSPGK
light: DAVMTQTPLSLSVTPGQPASISCRSSQSLENTNGNTFLNWYLQKPGQSPQLLIYRVSNRFSGVPDRFSGSGSGTDFTLKISRVEAEDVGVYYCLQVTHVPFTFGQGTKLEIKRTVAAPSVFIFPPSDEQLKSGTASVVCLLNNFYPREAKVQWKVDNALQSGNSQESVTEQDSKDSTYSLSSTLTLSKADYEKHKVYACEVTHQGLSSPVTKSFNRGEC
notes: also called huAb9-5 V273E
- EC50 (read off the curve) [7]: ~0.5 µg/mL
- binding result [8]: binds
- binding result [9]: binds
- binding result [10]: binds

B4: Humanized muAb9 #5 (antibody, human IgG1, kappa)
heavy: not shown
light: DAVMTQTPLSLSVTPGQPASISCRSSQSLENTNGNTFLNWYLQKPGQSPQLLIYRVSNRFSGVPDRFSGSGSGTDFTLKISRVEAEDVGVYYCLQVTHVPFTFGQGTKLEIKRTVAAPSVFIFPPSDEQLKSGTASVVCLLNNFYPREAKVQWKVDNALQSGNSQESVTEQDSKDSTYSLSSTLTLSKADYEKHKVYACEVTHQGLSSPVTKSFNRGEC
notes: wild type human IgG1/kappa; also called huAb9-5; huAb9-5 with wild type huIgG1
- Maximal activation (OD655) in HEK293 blue CD40 NFκB reporter cells [11]: 0.67 OD655
- NFκB activation EC50 (SEAP, OD655) in HEK293 blue CD40 NFκB reporter cells [11]: 1.13 µg/mL
- EC50 (read off the curve) [7]: ~0.5 µg/mL
- binding result [8]: binds
- binding result [9]: no binding (tested: 100 µg/mL)
- binding result [12]: binds
- binding result [10]: binds
- EC50 (read off the curve) [6]: ~0.2 µg/mL

B6: Humanized muAb8 #1 (antibody, V domains shown)
VH: EVQLVQSGAEVKKPGSSVKVSCKASGYTFTDYYINWVRQAPGQGLEWIGWIFPGSGSVYCNEQFKGRATLTVDRSTSTAYMELSSLRSEDTAVYFCASSLGKFAYWGQGTLVTVSS
VL: DIQMTQSPSSLSASVGDRVTITCKASQSVVTAVAWYQQKPGKSPKLLIYSASNRYTGVPSRFSGSGSGTDFTLTISSLQPEDFATYFCQQYSSYPYTFGGGTKVEIK
notes: human IgG1 constant region (natural variants D356E and L358M) and kappa light chain; also called huAb8-1
- Maximal activation (OD655) in HEK293 blue CD40 NFκB reporter cells [11]: 0.45 OD655
- NFκB activation EC50 (SEAP, OD655) in HEK293 blue CD40 NFκB reporter cells [11]: 0.14 µg/mL
- IC50 (read off the curve) [13]: ~0.3 µg/mL
